Here are results for 41 sequences from the nanobody polyreactivity screen of Harvey et al. (2022).

The data set can be described thus: yeast display, Sf9 membrane polyspecificity reagent, FACS + sequencing; frameworks hold sequencing errors. Put shortly:
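Sorting gates, low and high (top ~1%), were placed on anti-HA fluorescence to track expression and on streptavidin fluorescence to track reagent binding. A clone's polyreactivity label is taken from the gate it came out of. The reagent was 10% biotinylated, detergent-solubilized Sf9 membrane, applied for 1 hour at 4 °C to galactose-induced yeast display cells.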
Turning to “QVQLVESGGGLVQAGGSLSLSCAASGRTFYAYAMGWYRQAPGTERELVACIDKSGGSPYYADSVKGRFTISRTMRRYRLFTDEQPETGRYRGLLLRCWCVVLSDIQFWGEFDYDYWGQGTQVTVSS”, the “polyreactivity (PSR sort gate)” value is listed as “low polyreactivity”. On to “QVQLVESGGGLVQAGGSLRLSCAATGSIFDYYAMGWYRQAPGKERELVAAISLSGGITYYADSVKGRFTISRDNAKNTVYLQMNSLKPEDTEVYYCAADAIDVLYEYDRYDRRYEYWGQGTQVTVSS”, for which the “polyreactivity (PSR sort gate)” value is given as “low polyreactivity”. For the sequence “QVQLVESGGGLVQAGGSLRLSCAASGRIFPFYTMGWYRQAPGKERELVAAIRNAGSTKYADSVKGRFTISRDNAKNTVYLQMNSLKPEDTAVYYCNADLTRYRRYYWGQGTQVTVSS”, the “polyreactivity (PSR sort gate)” value is “low polyreactivity”.

“QVQLVESGGGLVQAGGSLRLSCAASGSTFGYYAMGWYRQAPGKERELVAAITSGGSTYYADSVKGRFTISRDNAKNTVYLQMNSLKPEDTAVYYCNRTYYWYWRYDYWGQGTQVTVSS”: the “polyreactivity (PSR sort gate)” value is given as “low polyreactivity”. “IIPAGGSLRLSCAASGATLIGYTMGWYRQAPGKERELVDAITWGAGSTNYADSVKGRFTISRDNAKNTVYLQMNSLKPEDTAVYDCNADSISDPRYLGEYDYWGQGTQVTVSS”: the “polyreactivity (PSR sort gate)” value is given as “low polyreactivity”.

Turning to “QVQLVESGGGLVQAGGSLRLSCAASGSIFADYAMGWYRQAPGKERELVAGISGRGGRTYYADSVKGRFTISRDYAKNTVYLQMNSLKPEDTAVYYCAAKYNYYTWPTRYTATGYYYWGQGTQVTVSS”, the “polyreactivity (PSR sort gate)” value is on record as “high polyreactivity”. For the sequence “QVQLVESGGGLVQAGGSLRLSCAASGGTFPLYAMGWYRQAPGKERELVAAIRWSGGRTYYADSVKGRFTISRDNAKNTVYLQMNSLKPEDTAVYYCAADYDDGWGYDYWGQGTQVTVSS”, the “polyreactivity (PSR sort gate)” value was “high polyreactivity”.

For “QVQLVESGGGLVQAGGSLRLSCAACGRTSSIYAMGWYRQAPGKERELVATITGGAVSTSYADSVKGRFTISRDNAKNTVYLQMNSLKPEDSAVYYCADDHWRYRSRPVNYWGLGTQVTVSS”, the “polyreactivity (PSR sort gate)” value is “high polyreactivity”. On to “QVQLVESGGGLVQAGGSLRLSCAASGSIFAYYAMGWYRQAPGKERELVAAISRGGGSTYYADSVKGRFTISRDNAKNTVYLQMNSLKPEDTAVYYCAAQYVYWTNRVRQHVTLNDYWGQGTQVTVSS”, for which the “polyreactivity (PSR sort gate)” value is recorded as “high polyreactivity”.

With “QVQLVESGGGLVQAGGSLRLSCAASGSTFARYAMGWSRQAPGKERELVAAISDSSGSTYYADSVKGRFTISRDNAKNTVYLQMNSLKPEDTAVYYCRYYFGSGYYYWGQGTLVTVSS”, the “polyreactivity (PSR sort gate)” value is given as “high polyreactivity”.

With “QVQLVESGGGLVQAGGSLRLSCAASGRTFRGNDMGWYRQAPGKERELVAAISWSGGGTYYADSVKGRFTISRDNAKNTVYLQMNSLKPEDTAVYYCAADLPHFRYYYWGQGTQVTVSS”, the “polyreactivity (PSR sort gate)” value was “low polyreactivity”. As to “QVQLVESGGGLVQAGGSLRLSCAASGFIFLYYAMGWYRQAPGKERELVADSSRGADTKYADSVKGRFTISRDNAKNNVYLQMNSLKPVDTAVYYCAARTGWPRVGFQFPAHVGFDYWGQGTQVTVSS”, the “polyreactivity (PSR sort gate)” value is listed as “low polyreactivity”.

Consider “QVQHEESGGGLVQAGGSLRLSCAASGRTYDPYAMGWYRQAPGKERELVAAISSGGSTNYADSVKGRFTISRDNAKNTVYLQMNSLKPEDTAVYYCGTDSGDGEGDYWGQGSQVTVSS”, for which the “polyreactivity (PSR sort gate)” value was “low polyreactivity”. Consider “QVQLVESGGGLVQAGGSLRLSCAASGSIFLYNAMGWYIQAPGKERELVAAISRSSTSTYYADSVKGRFTISRDNAKNTVYLQMNSLKPEDTAVYYCAARGRVTYWGQGTQVTVSS”, for which the “polyreactivity (PSR sort gate)” value is “high polyreactivity”. Take “QVQLVESGGVLVQAGGSLRISCAASGNTFVHYAMGWYRQAPGKEREFVAAISSSGGSTYYADSVKGRFTISRDNAKNTVYLQMNSLKPEDTAVYYCAAGGWPYSGGWFFQPNYDYWGQGTQVTVSS”: the “polyreactivity (PSR sort gate)” value is recorded as “low polyreactivity”. For “QVQLVESGGGLVQAGGSLRLSCAASGSIFPAYAMGWYIQDHGKERELLAAITRGGRTNYADSVKGRFTISRDNAKNTVYLQMNSLKPEDTAVYYCAARGYYAYRFDYWGQGTQVTVSS”, the “polyreactivity (PSR sort gate)” value is listed as “high polyreactivity”. In the case of “QFQLVESGGGLVQAVGSLRLSCAASGITFYTYAMGWYRHAPGKESDFVSAITRSGGSTYYADSVKGRFTFSRDNAKNTVYLQMIILKPEDTAVYYCAVDIYFWSYGWWGPYDYWGQGTQVTVSS”, the “polyreactivity (PSR sort gate)” value is reported as “low polyreactivity”. The value for “QVQLGESGGGLVQAGGSLRLSCAASGRIFTSYPMGWYRQAPGKERELVAAISRSGGSTYYADSVKGRFTISRDNAKNTVYLQMNSLKPEDTAVYYCAKARVVAGYDYWGQGTQVTVSS” was “high polyreactivity”. For “QVQLVESGGGLVQAGGSLRLSCAASGFTFENYAMGWYRQAPGKEREFVAAISTRGTSTYYADSVKGRFTISRDNAKNTVYLQMNSLKPEDTAVYYCAARFYYWGQGTQVTVSS”, the “polyreactivity (PSR sort gate)” value is on record as “high polyreactivity”. As for “QVQLVESGGGLVQAGGSLRLSCAASGRIFTHNTMGWYRQAPGKERELVATIDSGGSTNYADSVNGRFTISRDNAKNTVNLQMNSLQPEDTAVYYCAARVRPWRYLMGYWGQGTQVTVSS”, the “polyreactivity (PSR sort gate)” value is “low polyreactivity”.

With “QVQLVESGGGLDQAGGSLRLSCAPSGSIVRYAMGWYRPAPGKERELVAAISSSGGSTYYADSVKGRFTISRDNAKNTFYLQMNRLKPADTAVYYCAKRIVQASVAAYYYWGQGPQVTVSS”, the “polyreactivity (PSR sort gate)” value is given as “high polyreactivity”. For the sequence “QVQLVESGGGLVQAGGSLRLSCAASGRTFVTNAMGWYRQAPGKERELVAAIRWSSDSTYYADSVKGRFTISRDNAKNTVYLQMNSLKPEDTAVYYCAKQWYVAKISYDYWGQGTQVTVST”, the “polyreactivity (PSR sort gate)” value is reported as “high polyreactivity”. As to “QVQLVESGGGLVQAGGSLRLSCAASGITLGRYAMGWYRQAPGKERALVAAIPRSGGSTYYADSVKGRFTISRDNAKNTVYLQMNSLKPEDTAVYYCNRRVYPTSDYDYWGQGTQVTVSS”, the “polyreactivity (PSR sort gate)” value was “high polyreactivity”.

“QVQLVESGGGLVQAGGSLRLSCAASGSIFVYNDMGWYRQAPGKERELVAGIDWSGDRTYADSVKGRFTISRDNAKNTVYLQLNSLKPEDTAVYYCNADDWRWDEIIPYAVDYWGQGTQVTVSS”: the “polyreactivity (PSR sort gate)” value is “low polyreactivity”. As for “QVQLVETGGGLVQAGGSLRLSCAASGLTFYYYTMGWYRQAPGKERELVAAITSGGSTYYADSVKGRFTISRDNAKNTVYLQMNSLKPEDTAVYYCAAVPSRYGRYRYYYWGQGTQVTVSS”, the “polyreactivity (PSR sort gate)” value is “high polyreactivity”. Take “QVQLVESGGGLVQAGGSLRLSCAASGFIFRRYVMGWYRQAPGKERELVAAISYGGGSTYYADSVKGRFTISRDNAKITVYLQMNSLKPEDTAVYYCAKLYYRHLYEYDYWGQGTQVTVSS”: the “polyreactivity (PSR sort gate)” value is reported as “high polyreactivity”. For “QVQLVESGGGLVQAGGSLRLSCAASGFTFRRYAMGWYRQAPGKERELVAAISGRGGSTYYADSVKGRFTISRDTAKNTVYLQINSLKPEDTAVYYCNDDRYVRWTPGDYWGQGTQVTVSS”, the “polyreactivity (PSR sort gate)” value is “high polyreactivity”.

As to “QVQLVESGGGIVQAGGSLRLSCAASGSIFSGNAMGWYRQAPGKERELVAAIDRGGSTYYADSVKGRFTISRDNAKNTVYLQMNRLKPEDTAVYYCAKEYIVYNWAFYYWGQGTQVTVSS”, the “polyreactivity (PSR sort gate)” value is listed as “low polyreactivity”. The value for “QVHLEESGGGLVQAGGSLRLSCAASGFTFGPYAMGWYRQAPGKERELDATIRSGDSTNYADSVKGRFTISRDNAKNTVYLQMNSLKPEDTAVYYCARDARASARRKRYDYWGQGTQVTVSS” was “low polyreactivity”; that for “QVQLQESGGGLLQAGGSLRLSCAASGSISQYIFMGWYRQAPGKEREFVAGIGYGGTTNYADSVTGRFTISRDNAKNTVYLQMNSLKPEDTAMYYCSAREATEFYLYYWGQGTQVTVSS” was “low polyreactivity”. As for “QVQLVESGGGLVQAGGSLRLSCAASGITFRFNAMGWYRQAPGKERELVAAITSSGGRTYYADSVKGRFTISRDNAKNTVYLQMNSLKPEDTAVYYCNVRRLASYSFPYGYWGQGTQVTVSS”, the “polyreactivity (PSR sort gate)” value is “high polyreactivity”.

As for “QVQLVESGGGLVQAGGSLRLSCAASGSTSPIYAMGWYRQAPGKERELVAAINGVGSTNYADSVKGRFTISRDNAKNTVYLQMNSLKPEDTAVYYCNTRYSPGYQGTEVDYWGKGTQVTVSS”, the “polyreactivity (PSR sort gate)” value is “low polyreactivity”. For “QVQLVESGGGLVQAGGSLRLSCAASGSTFQVYGLGWYRQAPGKERELVAAISRSGGRTYYADSVKGRFTISRDNAKNTVYLQMNSLKPEDTAVYYCAKTYQTTTSKSGYYYWGQGTQVTVSS”, the “polyreactivity (PSR sort gate)” value is on record as “high polyreactivity”. Turning to “QVQLAESGGGLVQAGGSLRLSCAASGLTFNAYAMGWYRQAPGKERELVADITTSDGSTFYADSVKGRFTISRDNAKNTVYLQMNRLKPEDTAVYYCNADAYGWYSGPWFKWLLWYDYWGQGTQVTVSS”, the “polyreactivity (PSR sort gate)” value is recorded as “low polyreactivity”. With “QVQLVESGGGLVQAGGSLRLSCAASGSIFRQYAMGWYRQAPGKERELVAAIRRGTSTYYADSVKGRFTISRDNAKNTVYLQMNSLKPEDTAVYYCAKHQHYPHYQPYWSRYDYWGQGTQVTVSS”, the “polyreactivity (PSR sort gate)” value is listed as “low polyreactivity”. With “QVQLVESGGGLVQAGGSLRVSCAAYGRTFYRNTMGWYRQAPGKEREFVAAISATAGRTYYADSVKGRFTFSRDNAKNTVYLQKNSLKPEDTAVYYCAAVPLRNRWPNSWPALDYWGQGTQVTVSS”, the “polyreactivity (PSR sort gate)” value is “high polyreactivity”. As to “QVQLLESGGGLVQAGGSLRLSCAATGRIFAPYTMGWYRQAPGTEMEMFAVISKRGGNTYYADSVKGRFTISRDNAKNTVYLQMNSLKPEATAVYFCNADWQFRVYLGGPGTHGYDYWGQGTQVTVSS”, the “polyreactivity (PSR sort gate)” value is listed as “low polyreactivity”. On to “QVQLVESGGGLVQAGGSLRLSCAASGRTFWGNAMGWYRQAPGKEREFVAGITQSDGSTYYADSVKGRFTISRDNAKNTVYLQMNSLKPEDTAVYYCAATPYSTQGLRPKFDYWGQGTQVTVSS”, for which the “polyreactivity (PSR sort gate)” value is reported as “low polyreactivity”.

As to “QVQLVESGGGLVQAGGSLRLSCAASGFTTAYAMGWYRQAPGKERELVAAISSGGSTYYADSVKGRFTISRDNAKNTVYLQMNSLKPEDTAVYYCATGPYYGYDEFDYWGQGTQVTVSS”, the “polyreactivity (PSR sort gate)” value is recorded as “low polyreactivity”. For “QVQLVESGGGLVQAGGSLRLSCAASGSTFTPNAMGWYRQAPGKERELVASISTTGGNTYYADSVKGRFTISRDNAKNTVYLQMNSLKPEDTADYYCNAVRSVYLYGYIYGVDYWGQGTQVTVSS”, the “polyreactivity (PSR sort gate)” value is recorded as “low polyreactivity”. With “QVQLVESWGGLVQAGGSLRLSCAASGLIFYYNAMAWYRQAPGKERELVAAISRRGGGTYYADSVKGRFTISRDNAKNTVYLLMNSLKPEDTAVYYCAAGSPFSPGKYDYWGQGTQVSVSS” the entry was “high polyreactivity”.
